Peptide text beside a SMILES is read from it. * marks the point of attachment. Cbz = O=C(OCc1ccccc1)*

The test system of data set [1] is 293 cells. The experiment in a line: Viability of PIRP expressing cells during MG132-induced cellular stress and apoptosis (Trypan Blue exclusion). The class given is cell-based, human. Particulars: 293 control cells = 100%, not statistically significant, n=2. As to the method:
FIGS. 6A-6C are bar graphs showing growth factor activity associated with the PIRP-M and PIRP-L proteins. […] Colony number was determined after calcium phosphate transfection of 293 cells and G418 selection. The control plasmid was pBSII vector comprising the […] but no mammalian selectable marker. The PLP/DM20-GFP Pro-constructs are missing the CMV promoter and the PLP/DM20-GFP M1L vectors contain the Met^1 mutation and are unable to translate the full-length proteolipid proteins (see description of FIGS. 2B-2C). Increase in colony number following PIRP expression was highly stastically significant (Student's t-test). […] Pools of 293 cells derived from the transfectants (see above) were grown in toxic (50 μM) and subtoxic (25 μM) concentrations of MG132 for 24 hrs. Viable cells were identified using Trypan Blue exclusion. […] Subconfluent 293 cultures were treated with CM for 48 hrs and 72 hrs. Total and viable cell numbers were determined using Trypan Blue exclusion and expressed as % of control (293 cells treated with 293 CM) cell number.
Although PIRP expression increased colony number, the biochemical mechanism of this response has yet to be defined. […] After 24 hrs, viable cells were counted (Trypan Blue exclusion) (FIG. 6B).

For data set [2], the system named is human 293 cell line. The experiment in a line: Colony formation assay after transfection and G418 selection. The class given is cell-based. Particulars: 293 cells. How it is done: Transfections were performed in 100×20 mm dishes using the Profection® Mammalian Transfection System—a calcium phosphate transfection kit (Promega, Madison, Wis.). Cells grown to 50-70% confluence were fed 3 hrs prior to addition of the calcium phosphate/DNA mixture. A standard transfection assay contained 15 μg of plasmid DNA, while double transfections were done with 10 μg of each plasmid (20 μg total). The culture medium was removed 24 hrs post transfection and cells were processed for microscopic analysis or passed for G418 or Hygromycin B selection 48 hrs post transfection.
All constitutive expression cell lines were isolated by selection with the G418 antibiotic. 24 hrs after cell passage (see above), transfected 293 and NT2 cells were treated with 500 μg/mL G418 (Invitrogen Life Technologies) in DMEM. The selection medium was changed every second day for 2-2.5 weeks, during which the majority of cells detach and G418 resistant colonies emerge. Depending upon the number and density of colonies, surviving cells were grown for 3-5 days in G418-free medium prior to subcloning. Once colonies reached the appropriate size, each plate was briefly examined for fluorescence, and colonies with the lowest number of nonfluorescent, contaminating cells were marked for subcloning. […]

Data set [3] relates to 293, NT2, and 293-Tet-On cell lines. Nature of the data set: Proteasome inhibition assay, MG132-induced cell death. The class given is cell-based, human. The settings on record: 50 μM MG132, 24 hrs. As to the method: Proteasome inhibition assays were carried out in stably transfected cell lines using MG132 (Z-Leu-Leu-Leucinal)—a potent, cell permeable inhibitor of the 26S proteasomal complex (Calbiochem, San Diego, Calif.). The MG132 concentration in all experiments (50 μM) was sufficient to insure 100% cell death of all 293, NT2, and 293-Tet-On cell lines in 24 hrs.
To confirm that 293 and NT2 cultures undergo apoptosis within 24 hrs post treatment with 50 μM MG132, cells were assayed for poly(ADP-ribose) polymerase (PARP) cleavage by caspase-3. The 293 and NT2cultures were grown in 100 mm dishes to ˜90% confluence and passed at equal density into a six well tray. At 70-80% confluence, wells were treated with 50 μM MG132 in DMEM and harvested for proteins at 0.5 hrs, 1 hr, 2 hrs, 4 hrs, 6 hrs, and 24 hrs after treatment. The PARP cleavage products were resolved on 4% SDS PAGE gels. The Western blots were incubated with an anti-PARP (BIOMOL Research Laboratories) primary antibody diluted 1:2000 in 3% BSA, and a HRP conjugated goat anti-mouse secondary antibody (Amersham) diluted 1:2500 in 3% BSA.

For the molecule “PIRP-L: ~7 kDa polypeptide translated from Met234 of PLP/DM20 mRNA via IRES; SEQ ID NO:8 (MTFHLFIAAFVGAAATLVSLLTFMIAATYNFAVLKLMGRGTKF; listed as Homo sapiens)”, the “cellular viability (viable cell number), % of control cell lines” value in data set [1] (MG132-treated, 25 μM and 50 μM, 24 hrs) is reported as “small increase in viability”; in data set [1] (untreated cells), “not detected”. Also, the “colony count in PIRP-L transfectants compared to PIRP-M transfectants” value in data set [2] (p=0.02) is on record as “increased colony count”.

In the case of `CC(C)C[C@@H](C=O)NC(=O)[C@H](CC(C)C)NC(=O)[C@H](CC(C)C)NC(=O)OCc1ccccc1` [MG132, Z-Leu-Leu-Leucinal] (Cbz-Leu-Leu-Leu-aldehyde), the cell death in data set [3] is listed as 100%.

B1: PIRP-M: ~10 kDa polypeptide translated from Met205 of PLP/DM20 mRNA via IRES; SEQ ID NO:6 (protein, listed as Homo sapiens)
chain: MYGVLPWNAFPGKVCGSNLLSICKTAEFQMTFHLFIAAFVGAAATLVSLLTFMIAATYNFAVLKLMGRGTKF
As to B1, in data set [2] (calcium phosphate transfection, G418 selection, colonies grown 2 weeks, vs pBSII PIRP-M control DNA lacking G418 resistance), the “increase in colony number over controls” value is recorded as 600-700 fold.

The values above are taken from US20080227707A1, “BIOACTIVE PEPTIDES AND UNIQUE IRES ELEMENTS FROM MYELIN PROTEOLIPID PROTEIN PLP/DM20” (WAYNE STATE UNIVERSITY, priority 2002, published 2008).
